Laboratory results from PMC12715529, “Functional D- and L‑Naphthalenediimide-Peptides: Microwave-Driven Synthesis, Supramolecular Aggregation, and Multiphoton Fluorescence Lifetime Imaging Microscopy in Living Cells” (ACS Bio & Med Chem Au, 2025).

Experiments:
[1] = MTT and crystal violet cell viability assays; type: cell-based; settings: human, PC-3 cells, MTT and crystal violet assays, up to 72 h observation, read-out: IC50 (cytotoxicity)
Experimental: (§1) Subsequently, cells were washed three times with PBS, and 3-(4,5-dimethylthiazol-2-yl)-2,5- diphenyltetrazolium bromide (MTT) was added (0.5 mg/mL in serum-free medium (SFM)), followed by a 2 h incubation. After aspiration to remove the serum-free medium, 100 μL of DMSO was added to solubilize the precipitated formazan species, and 96-well plates were read by an ELISA plate reader, Molecular Devices Versa Max (BN02877). The absorption wavelength was 570 nm, and a 690 nm wavelength was used as a reference.

[2] = test system: cancerous cell lines (PC-3); experiment: MTT and crystal violet cell viability assays; type: cell-based; settings: at concentrations used for imaging, over 72 h of observations
Experimental: as §1

[3] = Two-photon TCSPC point decays in solution (aggregation behaviour); type: physicochemical; settings: for a1 (amplitude of τ1) / a2 (amplitude of τ2) / τ2 (long-lifetime component) / τ1 (short-lifetime component): two-photon TCSPC 910 nm
Text: Prior to the cellular studies by FLIM, lifetime distribution decays of probes 3 (both enantiomers), 4 (both enantiomers), and L -6 were studied by TCSPC in different concentrations and solvent systems. […] The main fluorescence lifetime parameters obtained by TCSPC in the solution phase are summarized in Table , and further details are given in Figures S105–S133 and Tables S2–S4. The goodness of fit of the data points obtained is represented by the Chi–square parameter, χ^2; τ1 is the short-lifetime component; τ2 is the long-lifetime component; and the parameters a1 and a2 represent the amplitude of the components.

[4] = test system: PC-3 cells; settings: 48 h
Experimental: After splitting the cells, cells (3 × 10^3 cells per well) were seeded on a sterile 96-well plate and incubated for 48 h to let the cells adhere to the plates. The compound of interest was subsequently loaded at different concentrations into the wells and incubated for a further 48 h. The concentrations used ranged between 250 μM or 0.01 mg/mL and 1 nM or 1 ng/mL (1% DMSO with compound, 99% RPMI (10% FCS) for PC-3. Subsequently, the medium from the plates was carefully aspirated so as not to disturb the colonies, and the plates were gently washed with PBS. Next, a mixture of methanol/PBS (1:1) was added in a sufficient volume to cover the colonies, and it was left for 15 min. After this time, it was removed, and 100% methanol was added for a further 15 min. The methanol was then removed, and 0.5% crystal violet solution (in 20% methanol and 80% water) was added and left to allow sufficient staining. The crystal violet solution was removed by carefully rinsing the cell plates with an indirect flow of tap water. The plates were inverted and left on the bench at room temperature to dry the water. Methanol (200 μL) was added to each well, and the plate was incubated with its lid on for 20 min at room temperature on a bench rocker with a frequency of 20 oscillations per minute. The 96-well plates were then read with an ELISA plate reader, Molecular Devices Versa Max (BN02877). […]

[5] = FE-SEM and Airyscan confocal imaging of dried films (aggregation morphology); type: physicochemical; settings: dried powder or freeze-dried 1 mg/mL MeCN/H2O (1:1) or DMSO solutions
Experimental: To further investigate the aggregation behavior, we examined the surface morphologies of the isolated conjugates in the solid state at the micrometer scale using field emission scanning electron microscopy (FE-SEM). This analysis aimed to determine whether the aggregation properties of these peptide-based compounds influence their fluorescence emission. The FE SEM micrographs of the D- and L-enantiomers of 3 and 4 were recorded from dried powder after purification or after freeze-drying of 1 mg/mL solutions deposited in either MeCN/H2O (1:1) or DMSO solutions. […] Confocal laser scanning fluorescence microscopy was performed for the thin films deposited on glass-bottomed borosilicate slides using imaging Petri dishes. Micrographs were acquired using Airyscan detection for L -3 (a1–e1), L -4 (a2–e2), D -3 (a3–e3), D -4 (a4–d4), and L -6 (a5–d5) where these images were recorded following overnight freeze-drying of films deposited from DMSO (Figures and S67). […] This is consistent with our observations from solution excitation–emission maps (Figures and S57–S63) and further points to the overall ability of these aggregates to show fluorescence emission due to possible stacking and excited-state electron and energy dynamics. […] Specifically, emission was detected in the blue (λem = 420–480 nm), green (λem = 495–550 nm), and red (λem = 555–620 nm) channels. […]

[6] = target: T1, GRP receptors in PC-3 cells (Homo sapiens, UniProt P30550); experiment: Blocking experiment with L-[7–13]BBN, confocal imaging; type: cell-based; settings: PC-3 pre-incubated with 1 mM L-[7–13]BBN, 37 °C, 20 min, washed, then conjugate 20 min
T1 construct: This also supports the targeted uptake directed by the GRP receptors in PC-3 cells; endogenous in cells; host or cells: PC-3 cells (ATCC)
T1 sequence (P30550 whole entry): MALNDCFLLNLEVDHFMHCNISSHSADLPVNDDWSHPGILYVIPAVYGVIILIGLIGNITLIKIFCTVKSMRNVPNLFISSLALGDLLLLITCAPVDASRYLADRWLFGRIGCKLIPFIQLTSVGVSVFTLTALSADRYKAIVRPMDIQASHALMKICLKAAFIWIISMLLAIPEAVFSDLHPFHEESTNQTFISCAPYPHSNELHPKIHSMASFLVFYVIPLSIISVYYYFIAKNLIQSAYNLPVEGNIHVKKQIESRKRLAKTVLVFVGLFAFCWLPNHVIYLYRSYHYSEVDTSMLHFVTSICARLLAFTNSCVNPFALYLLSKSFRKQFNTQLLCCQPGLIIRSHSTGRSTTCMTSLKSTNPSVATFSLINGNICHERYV
Experimental: Compound L -6 emits in the green and red channels (500–550 and 570–750 nm, respectively) when excited at 488 nm. […] In addition, the fluorescence emissions in vitro are stronger than the observed fluorescence emission in solution. […] This also supports the targeted uptake directed by the GRP receptors in PC-3 cells interplayed with BODIPY-driven cellular localization. To further probe this observation, a blocking experiment by confocal imaging was conducted (Figures S103–S104), whereby PC-3 cells were first incubated in the presence of a high concentration of L-[7–13]-BBN (1 mM) at 37 °C for 20 min. This peptide is only weakly fluorescent, and on this time scale (and up to 18 h of incubation time), confocal imaging cannot show distinguishable emission, to describe the uptake for L-[7,13]-BBN alone by this method (Figure S87). After the standard 20 min pretreatment time, the cells were washed with PBS and then the serum-free medium (SFM) was replaced. […] In the case of L-6, the observed maximum fluorescence intensity is distributed over the exterior of the cell, with points of aggregation visible around the membrane. […]
Figure S103. […] (D) A comparison of the mean fluorescence intensity estimated from confocal imaging experiments of the standard blocking assays in living PC-3 cells (Figure S103), under 20 min incubation, 37 °C, ex 488 nm. […]

[7] = DMSO, 0.01 mM, double-exponential fit, aggregation indicator

CC(C)C[C@H](NC(=O)[C@H](Cc1c[nH]cn1)NC(=O)CNC(=O)[C@@H](NC(=O)[C@H](C)NC(=O)[C@H](Cc1c[nH]c2ccccc12)NC(=O)[C@H](CCC(N)=O)NC(=O)[C@H](Cc1ccc(I)cc1)N1C(=O)c2ccc3c4c(ccc(c24)C1=O)C(=O)N([C@@H](Cc1ccc(I)cc1)C(=O)ON1C(=O)CCC1=O)C3=O)C(C)C)C(N)=O [L-3]
IC50 at 48 h [1]: > 100 µM | cytotoxicity in words [2]: nontoxic | a1 (amplitude of τ1) ([3]; DMSO, 0.01 mM): 62% | a2 (amplitude of τ2) ([3]; DMSO, 0.01 mM): 38% | τ2 (long-lifetime component) ([3]; DMSO, 0.01 mM): 7.35 ns | τ1 (short-lifetime component) [3, 7]: 0.84 ns | a1 (amplitude of τ1) ([3]; DMSO, 0.1 mM): 62% | a2 (amplitude of τ2) ([3]; DMSO, 0.1 mM): 38% | τ1 (short-lifetime component) ([3]; DMSO, 0.1 mM): 0.57 ns | a1 (amplitude of τ1) ([3]; DMSO, 1 mM): 63% | a2 (amplitude of τ2) ([3]; DMSO, 1 mM): 37% | τ1 (short-lifetime component) ([3]; DMSO, 1 mM): 0.38 ns | τ2 (long-lifetime component) ([3]; DMSO, 1 mM): 2.54 ns | a1 (amplitude of τ1) ([3]; DMSO/H2O (1:1), 0.025 mM): 82% | a2 (amplitude of τ2) ([3]; DMSO/H2O (1:1), 0.025 mM): 18% | τ1 (short-lifetime component) ([3]; DMSO/H2O (1:1), 0.025 mM): 0.37 ns | τ2 (long-lifetime component) ([3]; DMSO/H2O (1:1), 0.025 mM): 10.01 ns | a1 (amplitude of τ1) ([3]; DMSO/H2O (1:1), 0.25 mM): 81% | a2 (amplitude of τ2) ([3]; DMSO/H2O (1:1), 0.25 mM): 19% | τ1 (short-lifetime component) ([3]; DMSO/H2O (1:1), 0.25 mM): 0.38 ns | τ2 (long-lifetime component) ([3]; DMSO/H2O (1:1), 0.25 mM): 9.87 ns | a1 (amplitude of τ1) ([3]; DMSO/H2O (1:1), 2.5 mM): 77% | a2 (amplitude of τ2) ([3]; DMSO/H2O (1:1), 2.5 mM): 23% | τ1 (short-lifetime component) ([3]; DMSO/H2O (1:1), 2.5 mM): 0.31 ns | τ2 (long-lifetime component) ([3]; DMSO/H2O (1:1), 2.5 mM): 3.45 ns | IC50 [4]: > 100 µM

CC(C)C[C@H](NC(=O)[C@H](Cc1c[nH]cn1)NC(=O)CNC(=O)[C@@H](NC(=O)[C@H](C)NC(=O)[C@H](Cc1c[nH]c2ccccc12)NC(=O)[C@H](CCC(N)=O)NC(=O)[C@H](Cc1ccc(I)cc1)N1C(=O)c2ccc3c4c(ccc(c24)C1=O)C(=O)N([C@@H](Cc1ccc(I)cc1)C(=O)N[C@@H](CCC(N)=O)C(=O)N[C@@H](Cc1c[nH]c2ccccc12)C(=O)N[C@@H](C)C(=O)N[C@H](C(=O)NCC(=O)N[C@@H](Cc1c[nH]cn1)C(=O)N[C@@H](CC(C)C)C(N)=O)C(C)C)C3=O)C(C)C)C(N)=O [L-4]
IC50 at 48 h [1]: > 100 µM | cytotoxicity in words [2]: nontoxic | a1 (amplitude of τ1) ([3]; DMSO, 0.01 mM): 75% | a2 (amplitude of τ2) ([3]; DMSO, 0.01 mM): 25% | τ2 (long-lifetime component) ([3]; DMSO, 0.01 mM): 4.76 ns | τ1 (short-lifetime component) [3, 7]: 0.51 ns | a1 (amplitude of τ1) ([3]; DMSO, 0.1 mM): 79% | a2 (amplitude of τ2) ([3]; DMSO, 0.1 mM): 21% | τ1 (short-lifetime component) ([3]; DMSO, 0.1 mM): 0.49 ns | τ2 (long-lifetime component) ([3]; DMSO, 0.1 mM): 5.45 ns | a1 (amplitude of τ1) ([3]; DMSO, 1 mM): 77% | a2 (amplitude of τ2) ([3]; DMSO, 1 mM): 23% | τ1 (short-lifetime component) ([3]; DMSO, 1 mM): 0.48 ns | τ2 (long-lifetime component) ([3]; DMSO, 1 mM): 4.29 ns | a1 (amplitude of τ1) ([3]; DMSO/H2O (1:1), 0.025 mM): 84% | a2 (amplitude of τ2) ([3]; DMSO/H2O (1:1), 0.025 mM): 16% | τ1 (short-lifetime component) ([3]; DMSO/H2O (1:1), 0.025 mM): 0.48 ns | τ2 (long-lifetime component) ([3]; DMSO/H2O (1:1), 0.025 mM): 9.57 ns | a1 (amplitude of τ1) ([3]; DMSO/H2O (1:1), 0.25 mM): 83% | a2 (amplitude of τ2) ([3]; DMSO/H2O (1:1), 0.25 mM): 17% | τ1 (short-lifetime component) ([3]; DMSO/H2O (1:1), 0.25 mM): 0.40 ns | τ2 (long-lifetime component) ([3]; DMSO/H2O (1:1), 0.25 mM): 3.12 ns | a1 (amplitude of τ1) ([3]; DMSO/H2O (1:1), 2.5 mM): 86% | a2 (amplitude of τ2) ([3]; DMSO/H2O (1:1), 2.5 mM): 14% | τ1 (short-lifetime component) ([3]; DMSO/H2O (1:1), 2.5 mM): 0.26 ns | τ2 (long-lifetime component) ([3]; DMSO/H2O (1:1), 2.5 mM): 4.97 ns | aggregate morphology [5]: granular and globular morphology | IC50 [4]: > 100 µM

CC1=CC(C)=[N+]2C1=C(c1ccc(C(=O)NCCN3C(=O)c4ccc5c6c(ccc(c46)C3=O)C(=O)N([C@@H](CCC(N)=O)C(=O)N[C@@H](Cc3c[nH]c4ccccc34)C(=O)N[C@@H](C)C(=O)N[C@H](C(=O)NCC(=O)N[C@@H](Cc3c[nH]cn3)C(=O)N[C@@H](CC(C)C)C(N)=O)C(C)C)C5=O)cc1)c1c(C)cc(C)n1[B-]2(F)F [L-6]
IC50 at 48 h [1]: > 100 µM | cytotoxicity in words [2]: nontoxic | uptake after pre-blocking with L-[7–13]BBN [6]: significant decrease of the uptake efficiency in pretreated cells | uptake after pre-blocking with L-[7–13]BBN ([6]; listed as L -6): significantly lesser extent than in the nonblocked experiment | a1 (amplitude of τ1) ([3]; DMSO, 0.01 mM): 68% | a2 (amplitude of τ2) ([3]; DMSO, 0.01 mM): 32% | τ2 (long-lifetime component) ([3]; DMSO, 0.01 mM): 3.34 ns | τ1 (short-lifetime component) [3, 7]: 0.14 ns | a1 (amplitude of τ1) ([3]; DMSO, 0.1 mM): 80% | a2 (amplitude of τ2) ([3]; DMSO, 0.1 mM): 20% | τ1 (short-lifetime component) ([3]; DMSO, 0.1 mM): 0.14 ns | τ2 (long-lifetime component) ([3]; DMSO, 0.1 mM): 2.64 ns | a1 (amplitude of τ1) ([3]; DMSO, 1 mM): 66% | a2 (amplitude of τ2) ([3]; DMSO, 1 mM): 34% | τ1 (short-lifetime component) ([3]; DMSO, 1 mM): 0.14 ns | τ2 (long-lifetime component) ([3]; DMSO, 1 mM): 1.67 ns | a1 (amplitude of τ1) ([3]; DMSO/H2O (1:1), 2.5 mM): 65% | a2 (amplitude of τ2) ([3]; DMSO/H2O (1:1), 2.5 mM): 35% | τ1 (short-lifetime component) ([3]; DMSO/H2O (1:1), 2.5 mM): 0.15 ns | τ2 (long-lifetime component) ([3]; DMSO/H2O (1:1), 2.5 mM): 2.25 ns | τ1 relative to BODIPY-linker precursor 5 ([3]; TCSPC in solution, assigned to self-aggregation): 10 fold lower | τ1 (approximate) ([3]; both DMSO and DMSO/H2O solutions, TCSPC): ~0.1 ns
